Reference: patent US20110250165A1 (Dana-Farber, published 2011)

T1: CXCR2 (UniProt P25025 1-360, limits assumed)
T1 construct: whole, on cells; also called 2222
T1 sequence (looked up): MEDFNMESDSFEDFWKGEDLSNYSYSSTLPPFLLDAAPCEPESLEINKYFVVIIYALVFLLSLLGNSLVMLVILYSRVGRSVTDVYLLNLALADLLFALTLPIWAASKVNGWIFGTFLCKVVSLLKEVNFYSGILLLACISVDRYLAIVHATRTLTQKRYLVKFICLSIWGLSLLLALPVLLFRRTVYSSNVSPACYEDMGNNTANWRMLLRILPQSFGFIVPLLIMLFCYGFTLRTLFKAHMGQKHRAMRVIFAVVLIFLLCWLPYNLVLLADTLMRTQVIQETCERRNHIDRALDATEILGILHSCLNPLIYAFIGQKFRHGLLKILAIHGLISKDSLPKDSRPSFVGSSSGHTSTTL

B1: 19-Fc (Fc fusion)
VH: QVQLVQSGGGVVQPGRSLRLSCAASGFTFSSYPMHWVRQAPGKGLEWMTVISSDGRNKYYPDSVKGRFTISRDNSKNTLYLQMNSLRPEDTAVYYCARGGYHDFWSGPDYWGQGTLVTVSS
VL: EIVLTQSPATLSVSPGERATLSCRASQSVNTNLAWYQQKPGQAPRLLIYGASSRATGIPDRFSGSGSGTDFTLTISRLEPEDFAVYYCQHYGSSPLTFGGGTKLEIK
notes: scFv-Fc fusion; also called X19; scFv-Fc 19
B2: 48-IgG1 (antibody, V domains shown)
VH: QVQLVQSGGGVVLPGRSLRLSCVASGFTFRRYGMHWVRQAPGKGLEWVSLISYDGSKTFYGESVKGRFTISRDNSKNTLYLQMNSLRAEDTAVYYCARATVTTDGYYYMDVWGKGTTVTVSS
VL: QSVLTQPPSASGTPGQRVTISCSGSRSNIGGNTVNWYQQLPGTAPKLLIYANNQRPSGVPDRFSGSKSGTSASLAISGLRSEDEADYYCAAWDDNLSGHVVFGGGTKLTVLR
notes: Bivalent whole human IgG1, VH and VL subcloned into human IgG1 lambda light chain expression vector TCAE6; also called mAb 48
B3: 18-Fc (Fc fusion)
VH: QVQLVQSGAEVKKPGASVKVSCKASGYTFTSYGISWVRQAPGQGLEWMGWISAYNGNTNYAQKLQGRVTMTTDTSTSTAYMELRSLRSDDTAVYYCARDTPGIAARRYYYYGMDVWGQGTTVTVSS
VL: SSELTQDPAVSVALGQTVRITCQGDSLRKFFASWYQQKPGQAPVLVIYGKNSRPSGIPDRFSGSNSRNTASLTITGAQAEDEGDYYCNSRDSRDNHQVFGAGTKVTVL
notes: scFv-Fc fusion; also called X18; scFv-Fc 18
B4: 33-IgG1 (antibody, V domains shown)
VH: QVTLKESGGGVVQPGRSLRLSCAASGFTFTNYGLHWVRQAPGKGLEWVAVISHDGTKKYYADSVKGRFTISRDSSENTLYLQMNSLRPEDSALYYCARDGGYCSGGRCYSYGMDVWGQGTTVTVSS
VL: QSVLTQPPSASGTPGQRVTISCSGSRSNIGSNTVNWYQQLPGTAPKLLIYTNNQRPSGVPDRFSGSKSGTSASLAITGLQAEDEADYYCLSFDSSLTSYVFGTGTKVTVLG
notes: Bivalent whole human IgG1, VH and VL subcloned into human IgG1 lambda light chain expression vector TCAE6; also called mAb 33

What was measured:
[1] = target: T2, rhesus macaque monkey CXCR4 (rhesus macaque, UniProt P79394 1-352); assay: flow cytometry, scFv-Fc on transfected 293T cells, FITC anti-human IgG
T2 construct: whole, on cells
Description: (§1) Epitope mapping experiments were performed to determine the binding sites for the anti-CXCR4 antibodies of the invention. (See Example 5. infra). […] Analysis was performed using a flow cytometer. Binding activity was measured by MFI on total cells gated. The following formula was used to calculate the reactivity:reactivity to each clone=(MFI of chimeric receptor/MFI of wild type CXCR4)×100%.
(§2) Thirty six hours after transfection, the cells were harvested. […] The cells were then washed two times with 0.5% BSA/PBS/0.02% NaN3.
(§3) Next, FITC-labeled secondary antibodies were added to the cells and were allowed to incubate at 4° C. for 30 minutes. The cells were then washed again two times with 0.5% BSA/PBS/0.02% NaN3. Following the second wash, FACS analysis was performed.

[2] = target: T3, human CXCR4 (wild type) (human, UniProt P61073 1-352); assay: as above
T3 construct: whole, on cells; also called wtCXCR4
Description: as §1, §2, §3

[3] = target: T4, mouse CXCR4 (mouse, UniProt P70658 1-359); assay: as above
T4 construct: whole, on cells; also called mice CXCR4
Description: as §1, §2, §3

[4] = target: 2442 CXCR2/CXCR4 chimera; assay: as above
Description: as §1, §2, §3

[5] = target: Δ-X4; assay: as above
Description: as §1, §2, §3

[6] = target: 2242 CXCR2/CXCR4 chimera; assay: as above
Description: as §1, §2, §3

[7] = target: T5, 2444b CXCR2/CXCR4 chimera (human, UniProt P25025 1-48; P61073 39-352, limits assumed); assay: as above
Description: as §1, §2, §3

[8] = target: T1, CXCR2; assay: as above
Description: as §1, §2, §3

[9] = target: 4442 CXCR2/CXCR4 chimera; assay: as above
Description: as §1, §2, §3

[10] = target: T3, human CXCR4 (wild type); assay: FACS on 293T cells expressing CXCR4 variants
[11] = target: 2442 CXCR2/CXCR4 chimera; assay: FACS on 293T cells expressing CXCR4 variants
[12] = target: T5, 2444b CXCR2/CXCR4 chimera; assay: FACS on 293T cells expressing CXCR4 variants
[13] = target: 4442 CXCR2/CXCR4 chimera; assay: FACS on 293T cells expressing CXCR4 variants

T3 sequence (P61073 whole entry): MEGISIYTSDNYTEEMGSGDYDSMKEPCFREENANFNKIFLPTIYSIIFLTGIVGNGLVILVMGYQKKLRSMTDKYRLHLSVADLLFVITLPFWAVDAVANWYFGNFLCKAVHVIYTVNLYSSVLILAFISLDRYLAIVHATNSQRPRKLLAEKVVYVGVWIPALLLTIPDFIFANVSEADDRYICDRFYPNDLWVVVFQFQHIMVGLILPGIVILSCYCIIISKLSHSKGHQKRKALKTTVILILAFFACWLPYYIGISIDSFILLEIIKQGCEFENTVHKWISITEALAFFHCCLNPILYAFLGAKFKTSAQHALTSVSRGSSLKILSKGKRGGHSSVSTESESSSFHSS
T4 sequence (P70658 whole entry): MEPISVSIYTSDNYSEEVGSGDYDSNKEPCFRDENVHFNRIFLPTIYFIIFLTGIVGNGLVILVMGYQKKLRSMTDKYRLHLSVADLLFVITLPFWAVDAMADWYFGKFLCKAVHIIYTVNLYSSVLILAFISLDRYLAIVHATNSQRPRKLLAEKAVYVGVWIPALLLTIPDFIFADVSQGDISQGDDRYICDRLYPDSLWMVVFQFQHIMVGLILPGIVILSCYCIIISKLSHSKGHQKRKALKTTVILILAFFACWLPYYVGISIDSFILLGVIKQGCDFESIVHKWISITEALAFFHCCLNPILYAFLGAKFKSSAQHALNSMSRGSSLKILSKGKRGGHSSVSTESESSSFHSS
T2 sequence (P79394 whole entry): as the sequence (P61073 whole entry) above, with M24I, N35H, K38R, R146K, N176S, V214D counted along it

Binder	reactivity (MFI of chimeric receptor/MFI of wild type CXCR4 x 100%) [1] [%]	reactivity (MFI of chimeric receptor/MFI of wild type CXCR4 x 100%) [2] [%]	reactivity (MFI of chimeric receptor/MFI of wild type CXCR4 x 100%) [3] [%]	reactivity (MFI of chimeric receptor/MFI of wild type CXCR4 x 100%) [4] [%]	reactivity (MFI of chimeric receptor/MFI of wild type CXCR4 x 100%) [5] [%]	reactivity (MFI of chimeric receptor/MFI of wild type CXCR4 x 100%) [6] [%]	reactivity (MFI of chimeric receptor/MFI of wild type CXCR4 x 100%) [7] [%]	reactivity (MFI of chimeric receptor/MFI of wild type CXCR4 x 100%) [8] [%]	reactivity (MFI of chimeric receptor/MFI of wild type CXCR4 x 100%) [9] [%]	binding (+%) [10] [%]	binding (+%) [11] [%]	binding (+%) [12] [%]	binding (+%) [13] [%]
B1	35.1	100	5.6	7.1	11	5.2	8.5	7.5	5.3	–	–	–	–
B2	–	–	–	–	–	–	–	–	–	100	-2.9	-2.3	91.9
B3	89.1	100	13.1	37.8	48.1	10.1	28.5	2	35.2	–	–	–	–
B4	–	–	–	–	–	–	–	–	–	100	1.5	1	99.5
